Data reported in the DeepSol protein solubility set.

test: soluble on expression in E. coli; label from the status in PepcDB or PDB records

Sequence | soluble on expression in E. coli
MGSDKIHHHHHHMKGRMPIIEALCAHVERNATSWHVPGHKNGTLFEGLPSFFEWDKTELRGLDDFHYPEEAIYEAKLLLRQVYEARDSHFLINGSTVGNWAMLAAVSQRGDRIYVQRNSHKSVFNALEWLGLSPILLGPEIDPSTGISGNVSRETLEEALTTFPGGVAVFLTSPTYYGETARIEELLPFTTASGIPLLIDEAHGAHFGEAFGVRSAFELGATAVVQSAHKTLPALTMGAWIHERFTDDERRRLTRALQAFQTSSPSYLLMASLDFAREYREKWTVSNMKSVRTSHEHLHQQINQLTDITAFTFDDWSRMILSCEEYSGSQLIEALADQGLDAEFALGPHVVCILPLRSIEPFEQDTWINQIQLAIETLKAEGIPDKRYMEQPFMGKIKVSSLACPLDQLEDAEAVEQTFEQSVGLVSLETIIPYPPGIPLILRGERITAEHITMIEHYINTSIHLQGGEFLHQGKLRVIQEGIRE | not soluble
MGSDKIHHHHHHMKHKIVEVKNVLACLELMENLQGRSSITPGIGLIHGPSGFGKTTTLCWLINQLGAMNAIYVRCYATDTPSSFLARIMEELGSEMLYPMRKSVDFIVDRMNERQLPLFIDEADHIVGQSKIMETIRDLYDATEQPVVLVGMEEIARRISHRKQLFNRVSEWVEFQPADLSDVHSFAAELLDDRITVADDLLEHIRKRSGGEVRRILTALEKIERSAIANDMDIVTLDNWGDQPLFLEFRR | not soluble
MGSDKIHHHHHHMKHTQISRREFLKNIGMTGAGVLLAASPWLSAFSEAVNTSNEKCRLGVIGPGSRGRFLMSFLVQNPKVDIVALCDIYQPSIDEALKLAPKAKVYGDYRELLENNNIDAILVATPLSSHCKIVMDAFDAGKHVFCEKTIGFTMEECFRMYNKHRSTGKIFFTGQQRLFDPRYIKAMEMIHAGTFGEINAIRTFWYRNGDWRRPVPSANLERQINWRLYKEYSKGLMTELACHQLQIGSWALNKLPEKVMGHGAITYWKDGREVYDNVSCLYVFDDGVKMTFDSVISNQFYGLEEQIMGNLGTVEPEKGKYYFESIPPAPGFLQMINDWENKLFDTLPFAGTSWAPETANENKGELILGERPKSDGTSLLLEAFVEAVITRKQPARIAEEGYYASMLCLLGHQALQEEKTLYFPDEYKINYLNHQSKTSEAV | not soluble
MGSDKIHHHHHHMKHYQTIIIGAGAAGIGFGSAMQRLGLTNFLIIEKGHIGESFLRWPRTTQFITPSFTTNGFGFPDLNAVIPDTSPAFSFEKEHLSGVEYARYLQLVAAHYNLPIQNETSVLSIDKRDSLFVIKTSKGDFSADYLIMATGEFQNPNTIDIKGADLGMHYGQVDNFHIKSDNPFIIIGGNESACDALTHLVYLGNQVELYTDTFGRKESNPDPSISLSPLTKERLKHIQDHKKEYYSISEGKKAIEIKQIGKQYQVTFDDGSTAESFHKPILSTGFLNTCHLIDGIALFEYDKNQLPIVTEDDESTIVNNCFLIGPSLRQRDTIFCYIYKFRQRFVPVINHIAQREGIILDEDTLEFFKENQMYLDNLACCDVNCDC | not soluble
MGSDKIHHHHHHMKIAHVAPLYESVPPRLYGGTERIISYLTEALVDLGHDVTLFASGDTKTSAKLVPCRERALRLDPRPLKSEIAAHLSMLDEVRKRADDFDVIHFHLSHFLHFPFFRDMPQRTVTTPHGRLDYADLAQAYDRFPRFPMVSISRSQRARFASANWLATIHHGLPVDLYEPDFEAGSDGGYLAFLGRMSRDKRPDRAIEIARRTGLKLKLAAKIGDGDRAYFEEVVQPMIDGDRVEYVGEIGEDQKSRFLGNAAALLFPIDWPEPFGLAVIEAMACGTPVMAWSCGAMPEIVDYGVTGFVVETIEDAVATMPALLQLDRRRIRAVFERRFSADRMARDYVEAYSRLRNGHEQSRAS | not soluble
MGSDKIHHHHHHMKIGVNSYIVREMTGRGFSLDELNVDFVELGFDDAEIIKNDGEINMKILKDLSGLGIEFTIHAPTSDGKNFPIDFGEYFPIDLGTYRKTPIIKRMKKIIKVAEYLDASVIVVHGGDIKESYTKAYVNTLRNLRELKPITEDSGVKIVVENLFEGRIGALPHEVLSFAKEGFEVCFDIGHAFLTAIRTGLRVDEFEMLFPYTTHLHLHDNNGFRDEHKPIGEGIIGFSYVERVLELTNPERAVLEIRRYNKENSVLLNVEVLQEISRDFSQMKRLTEVVEP | not soluble
MGSDKIHHHHHHMKIGVVGPGAIGLLYTFYLQKSNQDVTLFTRTAKQADELNITGVTCIREGKRETVFPPVLPIESMLDQQLDYIFIAVKQYHITDILPFVRGKSSVVFLQNGMSHLHAMQKIENENIAVGIVEHGAKKEERHTVYHTGIGVTKFGIVRGRSIHFEKIFNCFPFPHFPIRIEDDWKGVMHKKLVVNVCINPLTALLQVKNGELITNPFFNQMMEQVFQEVVFLVKEEKEMVWEMVRHVCERTSHNTSSMLADVRANRQTEIGAIVGYVLEEAKKQQRSVPTLQFLFDAIKGLEVKV | not soluble
MGSDKIHHHHHHMKIHQLRALVAVTTAGSIKAAARTMHVTQPAISKAIQELENEFGVPLLERKPWGVVPTPEGDALLGRAQAVVRELERANEDMAHMKGLRDGRLVIGFTPIVAVTGFAEAYAAFRRHWPNVECELRELTFNLLTEQLRNRTLDLAFVAVTGPLSESVDIKAIRTFDTAFVTRENGRFAGATSLDALRDAEWIHADASDSFPTYIRDLHAHAGLPPPRCITRCTSYALFYSLLMTNDAIFSWTRLSLAETVFGQKLTPLPLPMSPPPLQLYRLTPPGLQLTRPASDFLAHVETAFASNQLTGDVQR | not soluble
MGSDKIHHHHHHMKIILTTSMSGLGGTETATVRLGRLLKRHGHDIILASSDGPFVGEAQASGIRWQPVDFYRGGLAGYLKSTFAYARMLRREQPDIIDCQMARVVPACALAAKIVSPKTKIICHSHGLDAATYPKTAKLFDKLGAYIIGNCKHEREKLIRHGFPAGRIAYAYNTPPEFHFRKTEKECAVLGTLSRLDTVRAVHLMLDILKKMVGRNIPVRLNMAGIGEEMDNLKAQAKRLGIEDKVTFLGGVRDLTGYFKEVDILVNTPHCVGDHGAGVGNNILEAGLYDTPVVTYNMAGISEMVITGQTGYCIPFGDDEAFIEAVDTLIKHPELRSQMGKALHKHVETLCSDDEIYRTTMAAYEM | not soluble
MGSDKIHHHHHHMKISIIGAGSVRFALQLVGDIAQTEELSREDTHIYMMDVHERRLNASYILARKYVEELNSPVKIVKTSSLDEAIDGADFIINTAYPYDPRYHDSGSQRWDEVTKVGEKHGYYRGIDSQELNMVSTYTYVLSSYPDMKLALEIAEKMKKMAPKAYLMQTANPVFEITQAVRRWTGANIVGFCHGVAGVYEVFEKLDLDPEEVDWQVAGVNHGIWLNRFRYRGEDAYPLLDEWIEKKLPEWEPKNPWDTQMSPAAMDMYKFYGMLPIGDTVRNGSWKYHYNLETKKKWFGKFGGIDNEVERPKFHEQLRRARERLIKLAEEVQQNPGMKLTEEHPEIFPKGKLSGEQHIPFINAIANNKRVRLFLNVENQGTLKDFPDDVVMELPVWVDCCGIHREKVEPDLTHRIKIFYLWPRILRMEWNLEAYISRDRKVLEEILIRDPRTKSYEQIVQVLDEIFNLPFNEELRRYYKEKL | soluble
MGSDKIHHHHHHMKISVLGAGCIGGSIALKLKEKHHVTAFDRDEETMKALEENGIETVSKESDLYDTDLLVLALPMSVEERFLKETDFSGKILDVASVKTPFMEIARERGLNFTGGHPMAGNERKGKSGWDREMFDGKIFFLCSLDGKEDGMIENIVKDLGARPLWIDYRIHDEIVAAVSHVQYLISLSARYVGKPFEEYAGPGYLSNTRLSKQNMEMALDMIRYNKENILKYLENARNFLNVLYHLTEKEDFENLKKVIREVIS | not soluble
MGSDKIHHHHHHMKKEKVEERIREILRPGWDLLTEEAMLYSATVGGKRIRPLLVLTLGEDLGVEEEKLLDVAVAVELFHTASLIHDDLPPIDNADFRRGKPSCHRTYGEDIALLAGDGLFFLAFSQISKIGNSKIFEEFSETAYKLLLGEAMDVEFERRKMEVSQEMVERMYAFKTGALFAFCFSAPFILKGKDHTKMKLLGEKFGVAFQIYDDLKDILGSFEKVGKDLGKDTEKVTLVKKVGIQKAREMADKYYEEVLKGIESEGLFRTLFLLKELKQMVEER | soluble
MGSDKIHHHHHHMKKKIVVLLPMKANSTRVKGKNFRDFCGKPLFRWILDSLLAVEDIDQIVINTDARDILAENGLVGTDRILIRDRKKEICGDEVSMNRVLADDVENVEADIYLMTHTTNPLLSSNTIKQAINQYNEELASASADSLFTVNKIQTRFYTAKCEPINHDPDNLIPTQDLEPWFEENSNLYLFNRESFAKTNARIGAKPSMMVSPAMECSDIDTPDDWDQAVVMTHYMLEKGFVKL | not soluble
MGSDKIHHHHHHMKKLYILAIAIAVTTFSCKKNKEDEPAPSGSEQAKVVENYANIVYATYDDALITAKNLRAKAADFVASPSEAGLEEVRAAYIASRTPYIQSEAFRFYSGPIDQDLGGGLTIESSINSWPLEEVYIDYVVGDANAGIINDVAHFPTIDKNVILENNQKEGAGENSVSSGYHAVEFLLWGQDLSETGPGDRKYTDYLVNSDDATNLNQARRGQYLLACIDLIIDNLQTLKEAWKSGNASNYRAGFIADPKGSIGNFLKGVIGYADDELSVERMQVALDTEGDAERQEQEQSCFSDQTYNDIILGQKGIKNVYVGEYVRIDGTIVSGMSVSDLVKAADPKLDSTVRAKIYDTDIKVAAIHAPFDNEILTANTAGTIRVQNAINALHVEAAQYKNAANKIGYLY | not soluble
MGSDKIHHHHHHMKKNIIILGLISLLAVSCGDDFLTTHPGDSVSTDLALSTEQDIDNAVNGLYDLMSSYGYYGGTMFFYGDMKGDDMQSSYNSGRTCNRCYLYDHRSTSLNAGYLWGRPFYIIRNAWNVINAIDDGKVQGSEQRLKELKGEAMTIMALCQFDLTRCFGYPYTKDKGAGWGAPIVDHAITLDENPPRSTVAKDYEFIISTLEEAIPLMSTSKNNSRMNAYAARALLSRIYLYHDDNEKAFQMASNLIEEVEGNGMYRLYTRDEYVPAWDLKNTFGTESLFEIANSTDDNGGRSSLAYLMHWNGYREIFATQKFVDELLSDPEDIRCLLLEKNVYNKNDVWWLKKWPGTDATTPSFENNYVIFRLSEVYLNAAEAGVKIGGASAVKGLNYLNAIVQRANPAKEVTAAEYTLDRVLEERSKELIGEGHRFFDMLRNGKTIVRKGGYHLPGIVEEIDWDYYKCVLPIPTDQFTFSPDMEQNPGYTKN | not soluble
MGSDKIHHHHHHMKKVIPALALVLLTTGLVGCDRVEPGNVGIKVNKLGDDKGVGEVVGVGRYWTGWNTEVYIFPTFKQMKTYDEPFSFQMSDGTTIGYHIGVAYKVDPSKVTTVFQTYRKGVDDITDTDLRQKIADALNRLASKMTTDKFIDGGKSELLDAALKDIQEEMTPIGIQVMSLSYVGKPEYPPTVIDSINAKVTANQKTLQCEQEVKQREAEANMLRAEAAGQADAIRTKAQAEADAIRLRGEALRQNPNVMELEAINKWNGTLPQYMTSGANTPFIQVK | not soluble
MGSDKIHHHHHHMKKYKNSLYVLALCGTMAACKPHIEEPSIDKGSLDVTKYVAVGNSITSGYADNALYYDGQQVSFANLLSGQFSKIGGGEFKQPLVSQTSVGVGSTGGARLKLALKTDCLGNTSLSPVPVAASGDLSIFGNIYSSAGPFNNMGVPGAKSVTTIYHGYGNPGNGLGKFNPFFTRMASNPATASILQDAMAQNPTFFTLFIGSNDVLLYALAGAANDSITPVAGGPGVGFDASMDAIVNTLVSGGAKGAIGNVPDITSLPYFTTVPYNGLVLTSQAQVDALNTAYTPFGITFHLGQNPFIIADAAAPGGRRQITSSEYVLLSVPQDSLKCNQWGSAKPIPNQYILTASEISNIRTAITNYNSKIKNLAAAHGLAFVDVNSFLMMAETGITYNGINLNTTFVSGGAFSLDGVHLTPIGNAMLANEFIKSINMTYGSTLPLIDATKYSGVKFP | not soluble
